36 molecules from patent US20140303084A1 (Biogen, published 2014) can be followed below.

B1: R-MeArg-APGKLTCLASYCWLFWTGIA (peptide)
peptide: R[NMeR]APGKLTCLASYCWLFWTGIA
modifications: disulfide 9-14 (inferred); not fully specified (C-terminus); printed as R-MeArg-APGKLTCLASYCWLFWTGIA
B2: RRAPGK-MeLeu-TCLASYCWLFWTGIA (peptide)
peptide: RRAPGK[NMeL]TCLASYCWLFWTGIA
modifications: not fully specified (bridges); printed as RRAPGK-MeLeu-TCLASYCWLFWTGIA; cysteine pairing not given here
B3: RRAPGKLTCLASYCWLFWTGI-MeAla (peptide)
peptide: RRAPGKLTCLASYCWLFWTGI[NMeA]
modifications: not fully specified (C-terminus, bridges); printed as RRAPGKLTCLASYCWLFWTGI-MeAla; cysteine pairing not given here
B4: RRAPGKLTCLASYCWLFWtGIA (peptide)
peptide: RRAPGKLTCLASYCWLFW[dT]GIA
modifications: not fully specified (C-terminus, bridges); printed as RRAPGKLTCLASYCWLFWtGIA; cysteine pairing not given here
B5: RRAPGKLTCLAS-MeTyr-CWLFWTGIA (peptide)
peptide: RRAPGKLTCLAS[NMeY]CWLFWTGIA
modifications: not fully specified (bridges); printed as RRAPGKLTCLAS-MeTyr-CWLFWTGIA; cysteine pairing not given here
B6: RRAPGKLTClASYCWLFWTGIA (peptide)
peptide: RRAPGKLTC[dL]ASYCWLFWTGIA
modifications: not fully specified (C-terminus, bridges); printed as RRAPGKLTClASYCWLFWTGIA; cysteine pairing not given here
B7: RRAPGKLtCLASYCWLFWTGIA (peptide)
peptide: RRAPGKL[dT]CLASYCWLFWTGIA
modifications: not fully specified (C-terminus, bridges); printed as RRAPGKLtCLASYCWLFWTGIA; cysteine pairing not given here
B8: RRAPGKLTCLASyCWLFWTGIA (peptide)
peptide: RRAPGKLTCLAS[dY]CWLFWTGIA
modifications: not fully specified (bridges); printed as RRAPGKLTCLASyCWLFWTGIA; cysteine pairing not given here
B9: RRaPGKLTCLASYCWLFWTGIA (peptide)
peptide: RR[dA]PGKLTCLASYCWLFWTGIA
modifications: not fully specified (bridges); printed as RRaPGKLTCLASYCWLFWTGIA; cysteine pairing not given here
B10: RRAPGKLTCLASYcWLFWTGIA (peptide)
peptide: RRAPGKLTCLASY[dC]WLFWTGIA
modifications: not fully specified (C-terminus, bridges); printed as RRAPGKLTCLASYcWLFWTGIA; cysteine pairing not given here
B11: RRAPGKLTCLASYCW-MeLeu-FWTGIA (peptide)
peptide: RRAPGKLTCLASYCW[NMeL]FWTGIA
modifications: not fully specified (bridges); printed as RRAPGKLTCLASYCW-MeLeu-FWTGIA; cysteine pairing not given here
B12: RRAPGKLTCLASYCWLFWT-Sar-IA (peptide)
peptide: RRAPGKLTCLASYCWLFWT[Sar]IA
modifications: not fully specified; printed as RRAPGKLTCLASYCWLFWT-Sar-IA; cysteine pairing not given here
B13: RRAPGKLTCLA-MeSer-YCWLFWTGIA (peptide)
peptide: RRAPGKLTCLA[NMeS]YCWLFWTGIA
modifications: not fully specified (bridges); printed as RRAPGKLTCLA-MeSer-YCWLFWTGIA; cysteine pairing not given here
B14: RRAP-Sar-KLTCLASYCWLFWTGIA (peptide)
peptide: RRAP[Sar]KLTCLASYCWLFWTGIA
modifications: not fully specified; printed as RRAP-Sar-KLTCLASYCWLFWTGIA; cysteine pairing not given here
B15: RRAPGKLTCLASYCWL-MePhe-WTGIA (peptide)
peptide: RRAPGKLTCLASYCWL[NMeF]WTGIA
modifications: not fully specified (bridges); printed as RRAPGKLTCLASYCWL-MePhe-WTGIA; cysteine pairing not given here
B16: RRAPGKLTCLASYCWLfWTGIA (peptide)
peptide: RRAPGKLTCLASYCWL[dF]WTGIA
modifications: not fully specified (C-terminus, bridges); printed as RRAPGKLTCLASYCWLfWTGIA; cysteine pairing not given here
B17: RR-MeAla-PGKLTCLASYCWLFWTGIA (peptide)
peptide: RR[NMeA]PGKLTCLASYCWLFWTGIA
modifications: disulfide 9-14 (inferred); not fully specified (C-terminus); printed as RR-MeAla-PGKLTCLASYCWLFWTGIA
B18: RRAPGKLTC-MeLeu-ASYCWLFWTGIA (peptide)
peptide: RRAPGKLTC[NMeL]ASYCWLFWTGIA
modifications: not fully specified (bridges); printed as RRAPGKLTC-MeLeu-ASYCWLFWTGIA; cysteine pairing not given here
B19: RRAPGKLTCLAsYCWLFWTGIA (peptide)
peptide: RRAPGKLTCLA[dS]YCWLFWTGIA
modifications: not fully specified (bridges); printed as RRAPGKLTCLAsYCWLFWTGIA; cysteine pairing not given here
B20: RRAPGKLTCLASYCWLFWTG-MeIle-A (peptide)
peptide: RRAPGKLTCLASYCWLFWTG[MeIle]A
modifications: not fully specified (C-terminus, bridges); printed as RRAPGKLTCLASYCWLFWTG-MeIle-A; cysteine pairing not given here
B21: RRAPGKLTCLASYCWlFWTGIA (peptide)
peptide: RRAPGKLTCLASYCW[dL]FWTGIA
modifications: not fully specified (bridges); printed as RRAPGKLTCLASYCWlFWTGIA; cysteine pairing not given here

Bridge positions count the residues as written; N and C are the ends. Square brackets hold non-standard residues; d marks the D form. Ends that are not written are not given here. NMeW = CN[C@@H](Cc1c[nH]c2ccccc12)C(=O)O; NMeY = CN[C@@H](Cc1ccc(O)cc1)C(=O)O; NMeR = CN[C@@H](CCCNC(=N)N)C(=O)O; NMeF = CN[C@@H](Cc1ccccc1)C(=O)O; NMeT = CN[C@H](C(=O)O)[C@@H](C)O; NMeL = CN[C@@H](CC(C)C)C(=O)O; NMeS = CN[C@@H](CO)C(=O)O; NMeA = CN[C@@H](C)C(=O)O; Sar = CNCC(=O)O

This experiment deals with human Factor IXa (human, UniProt P00740 47-191; P00740 227-461). As to the kind of experiment: cell-based or functional assay.
For the molecule B1, the “EC50 [µM], FXa generation assay” value is less than 0.5 µM.

For the molecule B2, the “EC50 [µM], FXa generation assay” value is more than 1 µM.

In the case of B3, the “EC50 [µM], FXa generation assay” value is more than 1 µM.

As to B4, the “EC50 [µM], FXa generation assay” value is less than 0.5 µM.

In the case of B5, the “EC50 [µM], FXa generation assay” value is more than 1 µM.

Consider RRKPGKLQCLASYCWLFWTGIA, for which the “EC50 [µM], FXa generation assay” value was more than 1 µM.

For B6, the “EC50 [µM], FXa generation assay” value is more than 1 µM.

For the molecule B7, the “EC50 [µM], FXa generation assay” value was more than 1 µM.

As to B8, the “EC50 [µM], FXa generation assay” value was less than 0.5 µM.

As to RRAPG[dK]LTCLASYCWLFWTGIA (disulfide 9-14 (inferred)) [RRAPGkLTCLASYCWLFWTGIA], the “EC50 [µM], FXa generation assay” value is less than 0.5 µM.

As to RKAPGKLQCLASYCWLFWTGIA, the “EC50 [µM], FXa generation assay” value was more than 1 µM.

Take B9: the “EC50 [µM], FXa generation assay” value was more than 1 µM.

In the case of B10, the “EC50 [µM], FXa generation assay” value was more than 1 µM.

Turning to B11, the “EC50 [µM], FXa generation assay” value is more than 10 µM.

For the molecule [NMeR]RAPGKLTCLASYCWLFWTGIA (cysteine pairing not given here) [MeArg-RAPGKLTCLASYCWLFWTGIA], the “EC50 [µM], FXa generation assay” value was more than 1 µM.

As for KRAPGKLQCLASYCWLFWTGIA, the “EC50 [µM], FXa generation assay” value is less than 0.5 µM.

On to RRAPGKL[NMeT]CLASYCWLFWTGIA (cysteine pairing not given here) [RRAPGKL-MeThr-CLASYCWLFWTGIA], for which the “EC50 [µM], FXa generation assay” value is more than 1 µM.

As for B12, the “EC50 [µM], FXa generation assay” value is less than 0.5 µM.

Regarding B13, the “EC50 [µM], FXa generation assay” value is less than 0.5 µM.

As to PRI[dR]TVGPGS[dR]SASGKLTCLASYCWLFWTGIA-NH2 (cysteine pairing not given here) [compound 23], the “EC50 [µM], FXa generation assay with hFIXa” value (“EC50 [µM] … with hFIXa” for short) was less than 0.5 µM.

RRAPGKLTCL[dA]SYCWLFWTGIA (not fully specified (bridges); cysteine pairing not given here) [RRAPGKLTCLaSYCWLFWTGIA]: the “EC50 [µM], FXa generation assay” value is more than 1 µM.

As for B14, the “EC50 [µM], FXa generation assay” value was less than 0.5 µM.

As for RRAPGKLTCLASYC[NMeW]LFWTGIA (cysteine pairing not given here) [RRAPGKLTCLASYC-MeTrp-LFWTGIA], the “EC50 [µM], FXa generation assay” value is more than 10 µM.

B15: the “EC50 [µM], FXa generation assay” value was more than 1 µM.

For the molecule PRIRTVGPGSRSASGKLTCLASYCWLFWTGIA-NH2 (cysteine pairing not given here) [compound 21], the “EC50 [µM] … with hFIXa” value was less than 0.5 µM.

With RRAPGKLQCLASYCWLFKTGIA, the “EC50 [µM], FXa generation assay” value is more than 10 µM.

On to B16, for which the “EC50 [µM], FXa generation assay” value is less than 0.5 µM.

B17: the “EC50 [µM], FXa generation assay” value is less than 0.5 µM.

As for B18, the “EC50 [µM], FXa generation assay” value was more than 1 µM.

Take B19: the “EC50 [µM], FXa generation assay” value is less than 0.5 µM.

On to B20, for which the “EC50 [µM], FXa generation assay” value was more than 4 µM.

On to RRAPKKLQCLASYCWLFWTGIA, for which the “EC50 [µM], FXa generation assay” value was more than 1 µM.

RRA[dP]GKLTCLASYCWLFWTGIA (disulfide 9-14 (inferred)) [RRApGKLTCLASYCWLFWTGIA]: the “EC50 [µM], FXa generation assay” value was less than 0.5 µM.

For RRAPGKLTCLASYCWLFWTGIA-NH2 (cysteine pairing not given here) [compound 4], the “EC50 [µM] … with hFIXa” value was less than 0.5 µM.

As for B21, the “EC50 [µM], FXa generation assay” value was more than 1 µM.

Turning to RRAKGKLQCLASYCWLFWTGIA, the “EC50 [µM], FXa generation assay” value was more than 1 µM.
